T1: full length rat GHR (L43R) on BAF3 cells (clone 2E2-2B12-F4) (rat) (UniProt P16310)
T1 sequence (looked up): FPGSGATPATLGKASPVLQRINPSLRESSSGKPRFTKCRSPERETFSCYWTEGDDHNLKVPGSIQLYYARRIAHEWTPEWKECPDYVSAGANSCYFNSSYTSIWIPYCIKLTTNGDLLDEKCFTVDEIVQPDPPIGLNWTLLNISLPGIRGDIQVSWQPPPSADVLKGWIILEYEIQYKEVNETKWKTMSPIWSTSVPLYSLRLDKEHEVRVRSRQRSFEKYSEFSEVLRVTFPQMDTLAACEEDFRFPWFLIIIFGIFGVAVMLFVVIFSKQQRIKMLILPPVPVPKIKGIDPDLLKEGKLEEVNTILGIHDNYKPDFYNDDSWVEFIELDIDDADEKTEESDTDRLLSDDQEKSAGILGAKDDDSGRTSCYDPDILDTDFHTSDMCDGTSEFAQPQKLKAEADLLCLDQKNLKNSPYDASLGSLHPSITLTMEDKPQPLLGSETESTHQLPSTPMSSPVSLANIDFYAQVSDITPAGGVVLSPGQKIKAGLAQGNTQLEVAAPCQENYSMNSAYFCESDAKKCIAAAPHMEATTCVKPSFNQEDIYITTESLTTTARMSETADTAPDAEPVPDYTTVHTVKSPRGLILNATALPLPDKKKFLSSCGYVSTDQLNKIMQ

T2: human growth hormone receptor on IM-9 cells (human, UniProt P10912 19-638)
T2 sequence (looked up): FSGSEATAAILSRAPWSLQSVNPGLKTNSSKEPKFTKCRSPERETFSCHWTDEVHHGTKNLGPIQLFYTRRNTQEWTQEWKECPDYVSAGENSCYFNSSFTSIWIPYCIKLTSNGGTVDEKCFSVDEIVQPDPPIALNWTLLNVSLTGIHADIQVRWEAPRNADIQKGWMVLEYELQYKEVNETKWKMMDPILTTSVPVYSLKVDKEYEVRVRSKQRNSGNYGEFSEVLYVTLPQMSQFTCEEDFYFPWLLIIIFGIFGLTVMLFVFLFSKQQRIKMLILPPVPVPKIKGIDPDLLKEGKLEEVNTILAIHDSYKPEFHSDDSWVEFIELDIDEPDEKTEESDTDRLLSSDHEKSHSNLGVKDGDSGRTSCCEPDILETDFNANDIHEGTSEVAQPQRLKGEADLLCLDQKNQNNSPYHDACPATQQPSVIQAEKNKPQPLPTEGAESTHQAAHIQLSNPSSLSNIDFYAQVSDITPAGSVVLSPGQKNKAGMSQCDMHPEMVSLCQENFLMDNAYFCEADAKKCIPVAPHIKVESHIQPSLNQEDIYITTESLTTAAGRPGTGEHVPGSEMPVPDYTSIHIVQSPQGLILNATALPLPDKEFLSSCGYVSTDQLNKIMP

T3: rat GHR ECD (L43R), soluble, C-terminal 6His (rat, UniProt P16310 47-256)
T3 construct: also called soluble GHR ECD; rat GHR (L43R) extra cellular domain; not shown: C-terminal 6His tag of pET20b
T3 sequence (looked up): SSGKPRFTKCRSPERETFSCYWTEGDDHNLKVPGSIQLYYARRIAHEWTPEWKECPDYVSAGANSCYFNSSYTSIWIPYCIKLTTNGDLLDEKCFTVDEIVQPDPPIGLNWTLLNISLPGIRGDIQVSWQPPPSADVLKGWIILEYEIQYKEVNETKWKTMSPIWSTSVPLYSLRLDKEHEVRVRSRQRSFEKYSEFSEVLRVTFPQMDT


Assays:
[1] = target: T1, full length rat GHR (L43R) on BAF3 cells (clone 2E2-2B12-F4) (rat); experiment: cell-based or functional assay
[2] = target: human growth hormone receptor on IM-9 cells (human) (UniProt P10912); experiment: cell-based or functional assay
[3] = target: T2, human growth hormone receptor on IM-9 …; experiment: cell-based or functional assay
[4] = target: T3, rat GHR ECD (L43R), soluble, C-terminal …; experiment: Biacore SPR; rat GHR ECD (L43R) on CM5 chip, GH injected; bivalent analyte model
Procedure: Various concentrations of wild type or mutant GH (0.1-300 nM) in HBS-EP buffer (Biacore™, Pharmacia) were injected over the GHR surface at a flow rate of 40 μl/min for 4-5 minutes, and dissociation was monitored for 15 minutes post-injection. The surface was regenerated by a 15 second pulse of 4.5M MgCl₂. […] Reference cell with no receptor immobilized was used to subtract any buffer bulk effects and non-specific binding.
Kinetic binding data obtained from GH titration experiments was processed with BiaEvaluation 4.1 software (BIACORE™). […] Equilibrium dissociation constants (Kd) were calculated as ratios of individual rate constants (koff/kₒₙ).

Sequence of hGH Y143pAF-30KPEG (P01241 27-217 Y169X): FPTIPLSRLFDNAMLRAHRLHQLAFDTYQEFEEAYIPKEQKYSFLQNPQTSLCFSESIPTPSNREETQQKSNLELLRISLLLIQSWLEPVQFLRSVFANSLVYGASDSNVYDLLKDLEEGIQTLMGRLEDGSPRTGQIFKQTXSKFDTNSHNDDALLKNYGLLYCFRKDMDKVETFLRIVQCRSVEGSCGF
Sequence of hGH G131pAF-30KPEG (P01241 27-217 G157X): as the sequence (P01241 27-217 Y169X) above, with G131X, X143Y counted along it
Sequence of hGH K145pAF-30KPEG (P01241 27-217 K171X): as the sequence (P01241 27-217 Y169X) above, with X143Y, K145X counted along it
Sequence of hGH Y35pAF-40KPEG (P01241 27-217 Y61X): as the sequence (P01241 27-217 Y169X) above, with Y35X, X143Y counted along it
Sequence of hGH R134pAF-20KPEG (P01241 27-217 R160X): as the sequence (P01241 27-217 Y169X) above, with R134X, X143Y counted along it

Proliferation EC50 (BrdU, rat GHR (L43R) BAF3 cells) (nM as headed; WHO hGH expressed as unity) [1] | pSTAT5 EC50 (IM-9) (nM as headed; WHO hGH expressed as unity) [2] | EC50 (nM), STAT5 phosphorylation in IM-9 cells [3] | Kd [4] | koff [4] | kon [4] | Molecule
4.6 | 23.8 | – | – | – | – | hGH G131pAF-30KPEG (from UniProt P01241 27-217) (ligand)
5.3 | 20.6 | – | – | – | – | hGH K145pAF-30KPEG (from UniProt P01241 27-217) (ligand)
– | 5.3 | – | – | – | – | hGH R134pAF-20KPEG (from UniProt P01241 27-217) (ligand)
24 | 53.3 | – | – | – | – | hGH Y35pAF-40KPEG (from UniProt P01241 27-217) (ligand)
6.6 | 12.3 | – | – | – | – | hGH Y143pAF-30KPEG (from UniProt P01241 27-217) (ligand)
– | – | > 200000 nM | 250 nM | 0.0083 s⁻¹ | 33000 M⁻¹ s⁻¹ | rat GH WT (ligand, UniProt P01244 27-216, looked up, also called rat growth hormone) FPAMPLSSLFANAVLRAQHLHQLAADTYKEFERAYIPEGQRYSIQNAQAAFCFSETIPAPTGKEEAQQRTDMELLRFSLLLIQSWLGPVQFLSRIFTNSLMFGTSDRVYEKLKDLEEGIQALMQELEDGSPRIGQILKQTYDKFDANMRSDDALLKNYGLLSCFKKDLHKAETYLRVMKCRRFAESSCAF
